Data reported in the supplement of paper PMC9170038.

System: MS2 coat protein
Assay: apparent KD of MS2 coat protein; designed switch direction (-1 OFF switch, 1 ON switch): -1; higher = weaker reporter binding
Outline: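 The apparent KD reported per design is the median over clusters of curve fits to normalised cluster fluorescence. The RNA switches were transcribed on Illumina chips by stalled E. coli RNA polymerase. SNAP-549-labelled MS2 coat protein was titrated from 0.7 or 1.5 nM, doubling up to 3 µM, in Tris-HCl pH 7.5 buffer containing KCl, MgCl2, BSA, DTT, tRNA and Tween-20, with no input, 200 uM small-molecule ligand, or an oligonucleotide input.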

[1] = Eterna round: R95, input ligand: FMN 200 uM
[2] = Eterna round: R95, input ligand: microRNA oligo, concentration not stated
[3] = Eterna round: R95, input ligand: none
[4] = input ligand: microRNA oligo, concentration not stated

Row | Sequence | apparent KD of MS2 coat protein [1] | apparent KD of MS2 coat protein [2] | apparent KD of MS2 coat protein [3] | apparent KD of MS2 coat protein (input ligand: FMN 200 uM) | apparent KD of MS2 coat protein (input ligand: none) | apparent KD of MS2 coat protein [4]
1 | AGUAGAUCUACGCUUGCGUGGAUCUGCAAUGCAGGUGUUACAUGAGGAUCACCCAUGUCCUCGUUUGCUCGUCUUAU [JL turnoff v2 99.12] (puzzle: Sensor v3, turn-off variant 2) | 209 nM | 664 nM | 222 nM | – | – | –
2 | AGUAGAUCUACGCUUGCGUGGAUCUGCUAUGCAGGUGUUACAUGAGGAUCACCCAUGUCCUCGUUUGCUCGUCUUAU [JL turnoff v2 99.13] (puzzle: Sensor v3, turn-off variant 2) | 333 nM | 693 nM | 448 nM | – | – | –
3 | AGUAGGAGAGGAUAUACAUGAAGUCGAAAGACUUCAACUCAACAUGAGGAUCACCCAUGUAGAAGGCUCCUACA [Omei Ex2 BD A6] (Eterna round: R97, puzzle: Exclusion 2) | – | – | – | 132 nM | 25.8 nM | –
4 | AGUAGGUCUACCUUGGUGGAUCUGCAUUAUUCAAGUGUUACAUGAGGAUCACCCAUGUCCUCAUUUGCUCGUCUUAU [JL turnoff v2 99.25] (puzzle: Sensor v3, turn-off variant 2) | 385 nM | 45.7 nM | 417 nM | – | – | –
5 | AGUAGUAGUAUCCGAUCCGACAUGAGGAUCACCCAUGUAGCUAGACGUGCACGCGAUGCUCGUCAGACUACCAGAUG [salish99_TOv1_r3_037] (puzzle: Sensor v3, turn-off variant 1) | 102 nM | 100 nM | 74.1 nM | – | – | –
6 | AGUAGUAGUAUCCGAUCCUACAUGAGGAUCACCCAUGUAGCUGGACGUGCACGCGAUGCUCGUCAGACUACCAGAUG [salish99_TOv1_r3_044] (puzzle: Sensor v3, turn-off variant 1) | 181 nM | 131 nM | 150 nM | – | – | –
7 | AGUAGUAGUUUCCGUUCUUACAUGAGGAUCACCCAUGUUUCUUGACGUGCACGCGAUGCUCGUCAGACUACCAGAUG [salish99_TOv1_r3_056] (puzzle: Sensor v3, turn-off variant 1) | 39.3 nM | 51.3 nM | 56.9 nM | – | – | –
8 | AGUAUGCGGCAGGAUAUCCAUCCGCGGUAAGGUGGAGAAGGGCUGACAUGAGGAUCACCCAUGUGCGUCCUGUA [salish99_ex6_r4_028] (Eterna round: R97, puzzle: Exclusion 6) | – | – | – | 31.9 nM | 19.9 nM | –
9 | AGUAUGUGAGGAUAUUUUUCGUCCGGUAGGAUACUACAGAGAAAGAAGGCACAUGAGGAUCACCCAUGUGAGAC [Eternabot (L1) Solution 55] (Eterna round: R97, puzzle: Exclusion 4) | – | – | – | 48.3 nM | 20.1 nM | –
10 | AGUCCAGACGGACCCUCUAACAUGAGGAUCACCCAUGUAGCGGAGGAUAUCCGAAUUUGGGCGACGGAGAAGGCCGUUGCAGGG [Edsosobi] (Eterna round: R96, puzzle: Exclusion NG 3) | – | – | – | 21.3 nM | 27.5 nM | 27 nM
11 | AGUCCUAGUCAAGGAUAUACACCGAAGAAAUACGUAGAAGGUGACAUGAGGAUCACCCAUGUAGGGCCUCUGGAAACAGAGGAA [Indiinbi] (Eterna round: R96, puzzle: Exclusion NG 1) | – | – | – | 208 nM | 143 nM | 107 nM
12 | AGUCCUGGAGUUAGGAUAUGGUGUAUCGCUGCGCUUCAGAAGGGACUUGAGGAUCACCCAAGUAGCCGUGAGGG [salish99_bmod_ex4_r4_007] (Eterna round: R97, puzzle: Brourd's mod of Exclusion 4) | – | – | – | 49.9 nM | 60.2 nM | –
13 | AGUCGAAAGACCAACAUGGACAUGAGGAUCACCCAUGUACAAGCCUUUUGCUCGUCACUAUCGUCAAAAGACGAUAG [Omei Mir Offv1 A1] (Eterna round: R97, puzzle: Sensor, turn-off variant 1) | – | – | – | 34.5 nM | 32.8 nM | –
